Reference: the supplement of paper PMC10126150
± gives the standard deviation of the averaged measurements.

System: ATP
Experiment: switch fluorescence ratio, 500 uM ATP over buffer (Cy3 cluster intensity, sum of 5 cycles each) (fold (ratio)); higher = stronger signal-on switching upon ATP binding; sequences stand for … in TCGTCGGCAGCGTCAGATGTGTATAAGAGACAGTTTTTTTTTTTTTTTTTTTTTTTTT…TC
Settings: aptamer strand: ATP DNA aptamer (quencher-CACCTGGGGGAGTATTGCGGAGGAAGG + anchor), 100 nM annealed; ATP concentration: 500 uM
In short: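 Clusters carrying Cy3-labelled switching strands on a modified Illumina MiSeq flow-cell were annealed to 100 nM quencher-labelled ATP aptamer and imaged in selection buffer. They were imaged again after 15 min with 500 uM ATP at 22 °C, over five buffer/ATP cycles with NaOH stripping and re-annealing in between. For each cluster, the fluorescence ratio is the summed Cy3 intensity of the target cycles divided by that of the buffer cycles, averaged per switch-domain sequence. Clusters outside 100-1000 RFU were left out.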
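Note: ATP exposure 15 min at 22 °C before imaging.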

| Sequence | switch fluorescence ratio |
| --- | --- |
| TTCAGCTTGG | 0.99 ± 0.015 |
| CAGTAGAATA | 1.02 ± 0.022 |
| GGGGCTATGT | 1.08 ± 0.14 |
| GGGGCATAAG | 1.01 ± 0.013 |
| AAAGTACTCG | 1.12 ± 0.0043 |
| TCGGGGTGTA | 1 ± 0.011 |
| TTTTTAGGAA | 1.04 ± 0.055 |
| CGTCACATGT | 1.009 ± 0.0048 |
| AATGGAGGAG | 1.01 ± 0.023 |
| ACAGCTGGGT | 0.98 ± 0.015 |
| CGTGGGGGCT | 1 ± 0.019 |
| AAATGTCCGG | 1 ± 0.024 |
| GTAGAAAGTA | 0.973 ± 0.031 |
| GGCGCTGTGA | 1.01 ± 0.022 |
| TTGAGATACG | 1.001 ± 0.0057 |
| AGTATAGGGA | 1.011 ± 0.01 |
| AATGATGTGG | 0.998 ± 0.021 |
| AGCATTGTGG | 0.996 ± 0.018 |
| GTTTGAAAGT | 0.957 ± 0.01 |
| AAAGGCGTGG | 0.9555 ± 0.0064 |
| TTGTATGTAG | 1.02 ± 0.021 |
| GGGTAAATAG | 1.034 ± 0.007 |
| ACTAGGTCCG | 1.005 ± 0.0016 |
| TTCGGGTGCC | 1.03 ± 0.057 |
| GGGGATACGC | 1.03 ± 0.012 |
| TTTGAAAGAA | 0.9779 ± 0.0054 |

| Sequence | switch fluorescence ratio |
| --- | --- |
| GGGGCATTTA | 0.9643 ± 0.0047 |
| TCAATATGTT | 1.004 ± 0.0073 |
| CGGTTTCTCG | 0.982 ± 0.02 |
| GACATAGTGG | 1.006 ± 0.0012 |
| ACGGAATATT | 1.171 ± 0.0019 |
| CGGACTCGTG | 0.954 ± 0.021 |
| AGTAGTAAGT | 1.01 ± 0.012 |
| CTGGTATAGA | 1 ± 0.046 |
| GCTTTTTTAC | 1.38 ± 0.32 |
| GGTCGTAGGG | 1.01 ± 0.016 |
| GGATACGTTG | 1.02 ± 0.052 |
| CAGAGAGGTG | 1.07 ± 0.041 |
| GCCAGTCTTT | 1 ± 0.012 |
| GATGTTCGTG | 0.994 ± 0.014 |
| GTTTTTCCAT | 1 ± 0.024 |
| CGTTGTATCT | 1 ± 0.035 |
| ATGCTACCGT | 1.03 ± 0.049 |
| AGCTTACTGT | 1.08 ± 0.019 |
| ACGCTGCCAG | 1.04 ± 0.02 |
| TTATAGTATT | 0.957 ± 0.044 |
| TGGGTTATAT | 0.979 ± 0.011 |
| GATAATTTTT | 0.9884 ± 0.0084 |
| TTTTGACGTT | 1.04 ± 0.042 |
| TAAAAGTCTA | 0.9999 ± 0.0094 |
| GGCCCCGGAT | 1 ± 0.07 |
| TAAGCGGAAT | 1.03 ± 0.013 |

| Sequence | switch fluorescence ratio |
| --- | --- |
| TAGTGTGGGG | 1.04 ± 0.034 |
| CGCATCGGTC | 1.16 ± 0.049 |
| AAATCAGATA | 0.987 ± 0.033 |
| AGTTTAGGGG | 0.9796 ± 0.0016 |
| TGAGTTGGGT | 0.986 ± 0.019 |
| GCATGTTGGG | 1.01 ± 0.029 |
| GGAGCCTGGT | 1.01 ± 0.022 |
| ATTACGGTGG | 1 ± 0.045 |
| CATGGTACGC | 1.055 ± 0.0043 |
| CAAGTATTTA | 1.03 ± 0.011 |
| CAGTACTGGT | 0.99384 ± 0.00024 |
| ATGGCGTCCA | 0.977 ± 0.045 |
| GCAGCAAAAG | 1.029 ± 0.0029 |
| GATGGATCGA | 0.977 ± 0.039 |
| ATTGGGTAT | 0.988 ± 0.021 |
| TTCGTGCCAG | 1.01 ± 0.043 |
| AGTTTATTC | 1.01 ± 0.061 |
| AATCGAAAGA | 1.02 ± 0.039 |
| AGCTGGCAGC | 1.009 ± 0.0012 |
| TGGGACCGTC | 1.052 ± 0.0042 |
| ATTTGAATTA | 1.01 ± 0.034 |
| CGGGAGGCCT | 1.01 ± 0.062 |
| TGTTCCGACT | 1.05 ± 0.051 |
| GGTAATTAAA | 0.974 ± 0.011 |
